What was measured:
[1] = tested on: HeLa Kyoto; assay: melting temperature (median over replicates), in situ; higher = more thermally stable
[2] = tested on: HeLa Kyoto; assay: thermal stability score vs G1/S (z-score of summed log2 fold changes over temperatures); higher = more thermally stable than in G1/S
[3] = tested on: HeLa Kyoto; assay: solubility in G1/S (NP-40 vs SDS abundance) (log2 ratio); higher = more soluble; conditions: cell cycle stage: G1/S
[4] = tested on: HeLa Kyoto; assay: solubility change mitosis vs G1/S (difference of NP-40 vs SDS log2 ratios) (log2 ratio difference); higher = more soluble in mitosis
[5] = cell cycle stage: early G1 (4.5 h after nocodazole release)
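Wherever melting temperature (median over replicates), in situ is given: HeLa Kyoto cells synchronized by double thymidine or nocodazole block, proteins quantified by TMT10plex mass spectrometry, three independent biological replicates.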
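Wherever solubility change mitosis vs G1/S (difference of NP-40 vs SDS log2 ratios) is given: synchronized HeLa Kyoto cells (double thymidine block for G1/S, nocodazole release for mitosis), protein amounts in NP-40 versus SDS lysates quantified by mass spectrometry, three biological replicates.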
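Wherever solubility in G1/S (NP-40 vs SDS abundance) is given: HeLa Kyoto cells arrested at G1/S by double thymidine block, proteins quantified by TMT10plex mass spectrometry in mild NP-40 versus SDS extracts, three biological replicates.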
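Wherever thermal stability score vs G1/S (z-score of summed log2 fold changes over temperatures) is given: synchronized HeLa Kyoto cells, proteins quantified by TMT10plex mass spectrometry, three biological replicates, mitosis taken 0.5 h after nocodazole release, G1/S directly after double thymidine block.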

Sequence	melting temperature ([1]; cell cycle stage: G1/S) [°C]	melting temperature ([1]; cell cycle stage: mitosis) [°C]	thermal stability score [2, 5]	thermal stability score ([2]; cell cycle stage: mitosis)	solubility in G1/S (log2) [3]	solubility change mitosis (log2) [4]
MDVLAEANGTFALNLLKTLGKDNSKNVFFSPMSMSCALAMVYMGAKGNTAAQMAQILSFNKSGGGGDIHQGFQSLLTEVNKTGTQYLLRMANRLFGEKSCDFLSSFRDSCQKFYQAEMEELDFISAVEKSRKHINTWVAEKTEGKIAELLSPGSVDPLTRLVLVNAVYFRGNWDEQFDKENTEERLFKVSKNEEKPVQMMFKQSTFKKTYIGEIFTQILVLPYVGKELNMIIMLPDETTDLRTVEKELTYEKFVEWTRLDMMDEEEVEVSLPRFKLEESYDMESVLRNLGMTDAFELGKADFSGMSQTDLSLSKVVHKSFVEVNEEGTEAAAATAAIMMMRCARFVPRFCADHPFLFFIQHSKTNGILFCGRFSSP [SERPINB6]	55.8	56.1	-1.49	-2.35	0.174	-0.136
MGVTCVSQMPVAEGKSVQQTVELLTRKLEMLGAEKQGTFCVDCETYHTAASTLGSQGQTGKLMYVMHNSEYPLSCFALFENGPCLIADTNFDVLMVKLKGFFQSAKASKIETRGTRYQYCDFLVKVGTVTMGPSARGISVEVEYGPCVVASDCWSLLLEFLQSFLGSHTPGAPAVFGNRHDAVYGPADTMVQYMELFNKIRKQQQVPVAGIR [MED20]	51.7	52.7	-0.587	-0.494	0.339	-0.0509
MSLSENSVFAYESSVHSTNVLLSLNDQRKKDVLCDVTIFVEGQRFRAHRSVLAACSSYFHSRIVGQADGELNITLPEEVTVKGFEPLIQFAYTAKLILSKENVDEVCKCVEFLSVHNIEESCFQFLKFKFLDSTADQQECPRKKCFSSHCQKTDLKLSLLDQRDLETDEVEEFLENKNVQTPQCKLRRYQGNAKASPPLQDSASQTYESMCLEKDAALALPSLCPKYRKFQKAFGTDRVRTGESSVKDIHASVQPNERSENECLGGVPECRDLQVMLKCDESKLAMEPEETKKDPASQCPTEKSEVTPFPHNSSIDPHGLYSLSLLHTYDQYGDLNFAGMQNTTVLTEKPLSGTDVQEKTFGESQDLPLKSDLGTREDSSVASSDRSSVEREVAEHLAKGFWSDICSTDTPCQMQLSPAVAKDGSEQISQKRSECPWLGIRISESPEPGQRTFTTLSSVNCPFISTLSTEGCSSNLEIGNDDYVSEPQQEPCPYACVISLGDDSETDTEGDSESCSAREQECEVKLPFNAQRIISLSRNDFQSLLKMHKLTPEQLDCIHDIRRRSKNRIAAQRCRKRKLDCIQNLESEIEKLQSEKESLLKERDHILSTLGETKQNLTGLCQKVCKEAALSQEQIQILAKYSAADCPLSFLISEKDKSTPDGELALPSIFSLSDRPPAVLPPCARGNSEPGYARGQESQQMSTATSEQAGPAEQCRQSGGISDFCQQMTDKCTTDE [BACH1]	53.6	53.1	-0.135	-2.84	-0.0438	0.0971
MAAEVYFGDLELFEPFDHPEESIPKPVHTRFKDDDGDEEDENGVGDAELRERLRQCEETIEQLRAENQELKRKLNILTRPSGILVNDTKLDGPILQILFMNNAISKQYHQEIEEFVSNLVKRFEEQQKNDVEKTSFNLLPQPSSIVLEEDHKVEESCAIKNNKEAFSVVGSVLYFTNFCLDKLGQPLLNENPQLSEGWEIPKYHQVFSHIVSLEGQEIQVKAKRPKPHCFNCGSEEHQMKDCPMPRNAARISEKRKEYMDACGEANNQNFQQRYHAEEVEERFGRFKPGVISEELQDALGVTDKSLPPFIYRMRQLGYPPGWLKEAELENSGLALYDGKDGTDGETEVGEIQQNKSVTYDLSKLVNYPGFNISTPRGIPDEWRIFGSIPMQACQQKDVFANYLTSNFQAPGVKSGNKRSSSHSSPGSPKKQKNESNSAGSPADMELDSDMEVPHGSQSSESFQFQPPLPPDTPPLPRGTPPPVFTPPLPKGTPPLTPSDSPQTRTASGAVDEDALTLEELEEQQRRIWAALEQAESVNSDSDVPVDTPLTGNSVASSPCPNELDLPVPEGKTSEKQTLDEPEVPEIFTKKSEAGHASSPDSEVTSLCQKEKAELAPVNTEGALLDNGSVVPNCDISNGGSQKLFPADTSPSTATKIHSPIPDMSKFATGITPFEFENMAESTGMYLRIRSLLKNSPRNQQKNKKASE [ZCCHC8]	51	52.4	0.273	0.547	0.0806	-0.117
MASPGIEVELLGKGHSDLGEVAPEIKASERRTAVAIADLEWREMEGDDCEFRYGDGTNEAQDNDFPTVERSRLQEMLSLLGLETYQVQKLSLQDSLQISFDSMKNWAPQVPKDLPWNFLRKLQALNADARNTTMVLDVLPDARPVEKESQMEEEIIYWDPADDLAADIYSFSELPTPDTPVNPLDLLCALLLSSDSFLQQEIALKMALCQFALPLVLPDSENHYHTFLLWAMRGIVRTWWSQPPRGMGSFREDSVVLSRAPAFAFVRMDVSSNSKSQLLNAVLSPGHRQWDCFWHRDLNLGTNAREISDGLVEISWFFPSGREDLDIFPEPVAFLNLRGDIGSHWLQFKLLTEISSAVFILTDNISKKEYKLLYSMKESTTKYYFILSPYRGKRNTNLRFLNKLIPVLKIDHSHVLVKVSSTDSDSFVKRIRAIVGNVLRAPCRRVSVEDMAHAARKLGLKVDEDCEECQKAKDRMERITRKIKDSDAYRRDELRLQGDPWRKAAQVEKEFCQLQWAVDPPEKHRAELRRRLLELRMQQNGHDPSSGVQEFISGISSPSLSEKQYFLRWMEWGLARVAQPRLRQPPETLLTLRPKHGGTTDVGEPLWPEPLGVEHFLREMGQFYEAESCLVEAGRLPAGQRRFAHFPGLASELLLTGLPLELIDGSTLSMPVRWVTGLLKELHVRLERRSRLVVLSTVGVPGTGKSTLLNTMFGLRFATGKSCGPRGAFMQLITVAEGFSQDLGCDHILVIDSGGLIGGALTSAGDRFELEASLATLLMGLSNVTVISLAETKDIPAAILHAFLRLEKTGHMPNYQFVYQNLHDVSVPGPRPRDKRQLLDPPGDLSRAAAQMEKQGDGFRALAGLAFCDPEKQHIWHIPGLWHGAPPMAAVSLAYSEAIFELKRCLLENIRNGLSNQNKNIQQLIELVRRL [URGCP]	49.3	49.8	0.429	0.88	-0.246	-0.0805
MAAKVFESIGKFGLALAVAGGVVNSALYNVDAGHRAVIFDRFRGVQDIVVGEGTHFLIPWVQKPIIFDCRSRPRNVPVITGSKDLQNVNITLRILFRPVASQLPRIFTSIGEDYDERVLPSITTEILKSVVARFDAGELITQRELVSRQVSDDLTERAATFGLILDDVSLTHLTFGKEFTEAVEAKQVAQQEAERARFVVEKAEQQKKAAIISAEGDSKAAELIANSLATAGDGLIELRKLEAAEDIAYQLSRSRNITYLPAGQSVLLQLPQ [PHB]	59.5	58.1	-1.45	-2.71	-0.137	-0.0774
MAFWAGGSPSVVDYFPSEDFYRCGYCKNESGSRSNGMWAHSMTVQDYQDLIDRGWRRSGKYVYKPVMNQTCCPQYTIRCRPLQFQPSKSHKKVLKKMLKFLAKGEVPKGSCEDEPMDSTMDDAVAGDFALINKLDIQCDLKTLSDDIKESLESEGKNSKKEEPQELLQSQDFVGEKLGSGEPSHSVKVHTVPKPGKGADLSKPPCRKAKEIRKERKRLKLMQQNPAGELEGFQAQGHPPSLFPPKAKSNQPKSLEDLIFESLPENASHKLEVRVVRSSPPSSQFKATLLESYQVYKRYQMVIHKNPPDTPTESQFTRFLCSSPLEAETPPNGPDCGYGSFHQQYWLDGKIIAVGVIDILPNCVSSVYLYYDPDYSFLSLGVYSALREIAFTRQLHEKTSQLSYYYMGFYIHSCPKMKYKGQYRPSDLLCPETYVWVPIEQCLPSLENSKYCRFNQDPEAVDEDRSTEPDRLQVFHKRAIMPYGVYKKQQKDPSEEAAVLQYASLVGQKCSERMLLFRN [ATE1]	51	50.8	0.0147	0.195	0.211	-0.352
MDDKELIEYFKSQMKEDPDMASAVAAIRTLLEFLKRDKGETIQGLRANLTSAIETLCGVDSSVAVSSGGELFLRFISLASLEYSDYSKCKKIMIERGELFLRRISLSRNKIADLCHTFIKDGATILTHAYSRVVLRVLEAAVAAKKRFSVYVTESQPDLSGKKMAKALCHLNVPVTVVLDAAVGYIMEKADLVIVGAEGVVENGGIINKIGTNQMAVCAKAQNKPFYVVAESFKFVRLFPLNQQDVPDKFKYKADTLKVAQTGQDLKEEHPWVDYTAPSLITLLFTDLGVLTPSAVSDELIKLYL [EIF2B1]	57.1	55.4	-1.83	-1.69	0.101	-0.134
MEFYESAYFIVLIPSIVITVIFLFFWLFMKETLYDEVLAKQKREQKLIPTKTDKKKAEKKKNKKKEIQNGNLHESDSESVPRDFKLSDALAVEDDQVAPVPLNVVETSSSVRERKKKEKKQKPVLEEQVIKESDASKIPGKKVEPVPVTKQPTPPSEAAASKKKPGQKKSKNGSDDQDKKVETLMVPSKRQEALPLHQETKQESGSGKKKASSKKQKTENVFVDEPLIHATTYIPLMDNADSSPVVDKREVIDLLKPDQVEGIQKSGTKKLKTETDKENAEVKFKDFLLSLKTMMFSEDEALCVVDLLKEKSGVIQDALKKSSKGELTTLIHQLQEKDKLLAAVKEDAAATKDRCKQLTQEMMTEKERSNVVITRMKDRIGTLEKEHNVFQNKIHVSYQETQQMQMKFQQVREQMEAEIAHLKQENGILRDAVSNTTNQLESKQSAELNKLRQDYARLVNELTEKTGKLQQEEVQKKNAEQAATQLKVQLQEAERRWEEVQSYIRKRTAEHEAAQQDLQSKFVAKENEVQSLHSKLTDTLVSKQQLEQRLMQLMESEQKRVNKEESLQMQVQDILEQNEALKAQIQQFHSQIAAQTSASVLAEELHKVIAEKDKQIKQTEDSLASERDRLTSKEEELKDIQNMNFLLKAEVQKLQALANEQAAAAHELEKMQQSVYVKDDKIRLLEEQLQHEISNKMEEFKILNDQNKALKSEVQKLQTLVSEQPNKDVVEQMEKCIQEKDEKLKTVEELLETGLIQVATKEEELNAIRTENSSLTKEVQDLKAKQNDQVSFASLVEELKKVIHEKDGKIKSVEELLEAELLKVANKEKTVQDLKQEIKALKEEIGNVQLEKAQQLSITSKVQELQNLLKGKEEQMNTMKAVLEEKEKDLANTGKWLQDLQEENESLKAHVQEVAQHNLKEASSASQFEELEIVLKEKENELKRLEAMLKERESDLSSKTQLLQDVQDENKLFKSQIEQLKQQNYQQASSFPPHEELLKVISEREKEISGLWNELDSLKDAVEHQRKKNNDLREKNWEAMEALASTEKMLQDKVNKTSKERQQQVEAVELEAKEVLKKLFPKVSVPSNLSYGEWLHGFEKKAKECMAGTSGSEEVKVLEHKLKEADEMHTLLQLECEKYKSVLAETEGILQKLQRSVEQEENKWKVKVDESHKTIKQMQSSFTSSEQELERLRSENKDIENLRREREHLEMELEKAEMERSTYVTEVRELKDLLTELQKKLDDSYSEAVRQNEELNLLKAQLNETLTKLRTEQNERQKVAGDLHKAQQSLELIQSKIVKAAGDTTVIENSDVSPETESSEKETMSVSLNQTVTQLQQLLQAVNQQLTKEKEHYQVLE [KTN1]	50	50.6	5.06	7.49	0.422	0.0644

Reference: the supplement of paper PMC5998384
